Results taken from US10513540B2, “Modulation of the immune response” (THE BRIGHAM AND WOMEN'S HOSPITAL, INC., priority 2012, dated 2019).

How the values were obtained:
TIM3 = target: T1, TIM3 (Mus musculus, UniProt Q8VIM0); assay: Staining of primary T cells with mouse CEACAM1 N-domain Fc fusion protein with or without blocking antibody (FIG. 9); assay type: binding; settings: primary naive T cells of TIM3 Tg mice
T1 construct: expressed in transfected cells; also crossed to Ceacam1-/-), with the transgene under the human CD2 promoter
T1 sequence (Q8VIM0 20-281): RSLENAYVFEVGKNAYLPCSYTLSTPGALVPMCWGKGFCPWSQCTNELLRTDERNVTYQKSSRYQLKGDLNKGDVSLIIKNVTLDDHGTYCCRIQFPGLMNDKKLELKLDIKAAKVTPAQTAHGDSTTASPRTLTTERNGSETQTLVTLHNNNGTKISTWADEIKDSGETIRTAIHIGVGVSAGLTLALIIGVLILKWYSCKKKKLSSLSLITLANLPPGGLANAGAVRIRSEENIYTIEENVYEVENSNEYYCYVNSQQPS
Excerpt: Primary naïve T cells were isolated from B6 (WT) mice with transgenic (Tg) overexpression of TIM3 in T cells, wherein TIM3 is controlled by the human CD2 promotor, and TIM3 Tg mice crossed to […] (knockout) or […]. Primary T cells were stained with a mouse N-domain as an Fc fusion protein in the presence or absence of varying concentrations of a TIM3 specific monoclonal antibody, 2C12, to block binding. *, P<0.05; **, P<0.01

TIM3 on primary T cells = assay: In vivo administration of N-CEACAM1-Fc, then in vitro stimulation of lymph node cells with anti-CD3 or SEB (FIGS. 10A-10B); set-up: species or system mouse; settings: 100 μg intraperitoneally, lymph nodes at 10 days
CD4+T-cells = assay: In vitro re-stimulation of CD4+ T-cells from SEB-immunized mice, TIM3 expression by FACS; assay type: cell-based, mouse
CD4+Vβ8+ T cells = settings: SEB treatment in presence or absence of fusion protein

B1: CEACAM1-Fc fusion protein: mouse CEACAM1 N-domain as an Fc fusion protein; Fc for fusion protein is human (protein)
chain: EVTIEAVPPQVAEDNNVLLLVHNLPLALGAFAWYKGNTTAIDKEIARFVPNSNMNFTGQAYSGREIIYSNGSLLFQMITMKDMGVYTLDMTDENYRRTQATVRFHVHP
modifications: left off: a dimerising Fc or GST
notes: mouse CEACAM1 N-domain as an Fc fusion protein; Fc for fusion protein is human
Binding to TIM3 on primary transgenic T cells (TIM3): binds in trans to TIM3
Induction of tolerance (proliferation, interferon gamma production) (TIM3 on primary T cells): induce tolerance
TIM3 up-regulation in response to SEB re-stimulation (Mean Fluorescence) (CD4+T-cells; SEB-responsive T-cells, CEACAM1 ligation with fusion protein, in vitro re-stimulation): 29%
TIM3 expression on gated CD4+ T-cells (CD4+T-cells; in vitro, 0.5 mg/ml, 48 hours): up-regulates TIM-3 in vitro
T cell receptor engagement by SEB (deletion of CD4+Vβ8+ T cells) (CD4+Vβ8+ T cells): not significantly influenced
